Substrate in this series: O=[N+]([O-])c1ccc(OP(=O)(O)Oc2ccc([N+](=O)[O-])cc2)cc1
The series can be described thus: purified protein. It counts as biochemical, Ignicoccus hospitalis. The note with it: pH 8, 90 °C, Ni2+ is the required metal (optimal metal conditions).

As usually defined, the Km is the substrate concentration at which the rate is half of its maximum. As usually defined, the kcat is the number of substrate molecules converted per active site and unit of time at saturation.

B1: Igni18 (Ignicoccus hospitalis KIN4/I) (protein)
chain: MTTVKLTYFGHSAFHVEVDGVGIAIDPWITNPLSKTTLEDYLKNFKTDLVVITHAHEDHIGDALEIMRRTGAKFFSIHEIYVDLTQKGFQGIGANIGGPAKLDDVAPGLGIALTPATHSSYDKGVPTGAIIFKDGKALVYHAGDTGLFAEMQFIGELYAPKVALLPIGGHYTMDIEQALLATKLLRPEVVVPMHYNTFPPIRADPNEFKQKVESAGLAKVRVMEPGETVTFEF
notes: homotrimer; 233 protein residues in the structure
For B1, the Km was 2.5 µM and the kcat is 6.72e-05 s⁻¹.
